Biological target: T1, GST-CCPG1 NTD (bacterial) (1-230) (human, UniProt Q9ULG6 1-230)
T1 construct: CCPG1, human, N-terminal amino acids 1-230 (NTD); source: E. coli Rosetta II (DE3), pre-purified on glutathione Sepharose beads
T1 sequence (looked up): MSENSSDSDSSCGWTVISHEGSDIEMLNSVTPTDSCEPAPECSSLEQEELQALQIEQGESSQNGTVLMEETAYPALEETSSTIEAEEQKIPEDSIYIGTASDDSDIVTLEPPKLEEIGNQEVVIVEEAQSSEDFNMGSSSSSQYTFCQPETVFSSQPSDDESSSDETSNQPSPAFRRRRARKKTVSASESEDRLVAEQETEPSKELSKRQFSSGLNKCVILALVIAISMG
Test: pull-down; GST-CCPG1 NTD pre-purified on glutathione Sepharose beads, incubated with purified recombinant protein (His-GABARAP or His-FIP200) in IGEPAL IP buffer, 4°C; immunoblot
Conditions: both partners purified

B1: His-GABARAP (natural protein, human, UniProt O95166 1-117, looked up)
chain: MKFVYKEEHPFEKRRSEGEKIRKKYPDRVPVIVEKAPKARIGDLDKKKYLVPSDLTVGQFYFLIRKRIHLRAEDALFFFVNNVIPPTSATMGQLYQEHHEEDFFLYIAYSDESVYGL
notes: GABARAP, human ATG8 ortholog; also called purified, recombinant His-GABARAP; source: recombinant, purified
- binding result: binds

Source: PMC5791736, “CCPG1 Is a Non-canonical Autophagy Cargo Receptor Essential for ER-Phagy and Pancreatic ER Proteostasis” (Developmental Cell, 2018)
